Assay results reported in doi:10.1101/2022.03.30.486377 (bioRxiv, 2022).

What was measured:
Assay in all cases: ELISA
[1] = target: SARS-CoV-2 S2 in postfusion conformation (SARS-CoV-2 (D614G ectodomain; D614G …, UniProt P0DTC2, strain)
[2] = target: SARS-CoV-2 S2 PentaPro in prefusion conformation (SARS-CoV-2, Wuhan-Hu-1 sequence, UniProt P0DTC2, stabilised)
[3] = target: SARS-CoV-2 S PentaPro (F817), prefusion S trimer (SARS-CoV-2, Wuhan-Hu-1 sequence, UniProt P0DTC2, stabilised)

Measured: binding result

B1: VN01H1 mAb (antibody, V domains shown)
VH: EVQLVESGGGLVLPGGSLRLSCSASGFTFSDFSMHWVRQSPGKGLEYVSAITSSGSSTYYPDSVKGRFTISRDNSKNTLYLQMGSLRVEDTAVYWCVKNSDVFRFPHLYFDVWGRGTLVTVSS
VL: not shown
binds: all assays above

B2: VP12E7 mAb (antibody, V domains shown)
VH: QVQLVQSGGGVVQPGESLRLSCSGSGFTFNNYIMHWVRQAPGQGLDYVSGIGSDGRNTNYGDSVKGRFTISRDNSKDTLYLQMTSLRAEDTAFYYCVKGLDVLRFLDLSTPSGERLDAFDIWGQGTMVTVSS
VL: DIVMTQSPSFLSASVGDRVTITCRASQGISNYLAWYQQKPGKAPHLLIYAASTLQSGVPSRFSGSGSGTEFTLTISSLQPEDFATYYCQQLNSYPLFTFGPGTKVDIE
binds: all assays above

B3: C13B8 mAb (antibody, V domains shown)
VH: QVQLQESGPGLVQPSQTLTLTCTVSGDSISNEDYHWTWIRQHPGKGLEWMGYLQYSGNTNYNPSLKSRMTISVDTSKNQFSLRLNSVTAADTAVYFCATSIVLTGMSNKIQPFDYWGQGTLVTVSS
VL: SYELTQPPSVSVSPGQMARITCSGEALPKKYAYWYQQKGGQFPVLVIYKDTERPSGIPERFSGSSSGTIVTLTISGVQPEDEADYYCLSADTSGTWVFGGGTKLTVL
binds: all assays above

B4: C77G12 mAb (antibody, V domains shown)
VH: EVQLVESGGGVVQPGRSLRISCAVSGFTFGSYAMHWVRQAPGKGLEWVGVMSSDGHNEYYADSVKGRFTISRDNSRNKLYLEMNNLRVDDTAVFYCARGSDYVDDSPPLHYWGQGTLVTVSS
VL: DIQLTQSPSSLSASIGDRVTITCRASQDIANKLAWFQQAPGKAPKSLIYAASRLQSGVPSQFSGSGSGTDFTLTIESLQAGDFATYFCQQYDSFPFTFGPGTKVDVK
binds: all assays above

B5: C13C9 mAb (antibody, V domains shown)
VH: EVQLVQSGPEVKKPGTSARVSCKASGFTSKNTALQWVRQARGQPLEWMGWIDISNYITNYAQKFRGRLTITWDLSASMAYMELSSLRSEDTAVYYCAAVGKDDDVLTGGNKYFDHWGQGTLVTVSS
VL: SYELTQPPSVSVSPGQTARITCSGDALPKKYAYWYQQKSGQAPVLVIHEDDKRPSGIPGRFSASSSGTTATLTISGAQVEDEADYYCYSTDTNDNHAFGSGTKLTVL
binds: all assays above
